For six molecules, Kd results are on record in PMC13649778, “Unraveling single-molecule reactions via multiplexed in-situ DNA sequencing”.

The term Kd denotes the free concentration of one partner at which half of the binding sites on the other are occupied at equilibrium, for simple one-to-one binding.

First the molecules themselves.
B1: CAPcons library member CAPcons_G (top 5C) (dsDNA)
DNA 1: GGCAGTGAGCTCTACGCAATAAATCTGATCTAGATCACATTTTAGGCAC
DNA 2: GTGCCTAAAATGTGATCTAGATCAGATTTATTGCGTAGAGCTCACTGCC
B2: CAPcons library member CAPcons_A (top 5T; table letter taken as bottom-strand base) (dsDNA)
DNA 1: GGCAGTGAGCTCTACGCAATAAATTTGATCTAGATCACATTTTAGGCAC
DNA 2: GTGCCTAAAATGTGATCTAGATCAAATTTATTGCGTAGAGCTCACTGCC
B3: CAPcons library member CAPcons_C (consensus, top 5G) (dsDNA)
DNA 1: GGCAGTGAGCTCTACGCAATAAATGTGATCTAGATCACATTTTAGGCAC
DNA 2: GTGCCTAAAATGTGATCTAGATCACATTTATTGCGTAGAGCTCACTGCC
B4: CAPcons library member CAPcons_T (top 5A; table letter taken as bottom-strand base) (dsDNA)
DNA 1: GGCAGTGAGCTCTACGCAATAAATATGATCTAGATCACATTTTAGGCAC
DNA 2: GTGCCTAAAATGTGATCTAGATCATATTTATTGCGTAGAGCTCACTGCC
B5: CAPcons (consensus, pure; CAPcons_C, top 5G) (dsDNA)
DNA 1: GGCAGTGAGCTCTACGCAATAAATGTGATCTAGATCACATTTTAGGCAC
DNA 2: GTGCCTAAAATGTGATCTAGATCACATTTATTGCGTAGAGCTCACTGCC
B6: CAPcons position 5 C:G variant (pure; CAPcons_G) (dsDNA)
DNA 1: GGCAGTGAGCTCTACGCAATAAATCTGATCTAGATCACATTTTAGGCAC
DNA 2: GTGCCTAAAATGTGATCTAGATCAGATTTATTGCGTAGAGCTCACTGCC

One data set has as its target T1, Alexa647-CAP (CAP-(Cys17;Ser178), catabolite activator protein) (Escherichia coli, UniProt P0ACJ8 1-210, H18C;C179S). The data set is described as follows: single-molecule fluorescence (SPIN-Seq library); 0.2 mM cAMP, 10 mM Mg2+; 40 mM Tris pH 8, 100 mM KCl, 10 mM MgCl2, 5% glycerol, 0.2 mM cAMP, 1 mM TROLOX, glucose oxidase/catalase; 1.25 nM (pure) or 2.5 nM (library) Alexa647-CAP; temperature not stated. Particulars: protein: recombinant; tags: His6; Alexa647 maleimide (40% labelled); chain copies: 2; label: Cy3B at top position 11; 5' biotin on bottom strand; blunt.
Regarding B1, the dissociation constant Kd came out at 20.1 ± 0.9 nM. Same read-out and setting: then B2, with 29.1 ± 1.6 nM. The same measure, in the same setting: then B3, with 10.6 ± 0.6 nM.

As to B4, the dissociation constant Kd is 24.4 ± 0.8 nM.

For a further data set, the target named is T1, Alexa647-CAP (CAP-(Cys17;Ser178), …). Description: single-molecule fluorescence (koff/kon); 0.2 mM cAMP, 10 mM Mg2+; 40 mM Tris pH 8, 100 mM KCl, 10 mM MgCl2, 5% glycerol, 0.2 mM cAMP, 1 mM TROLOX, glucose oxidase/catalase; 1.25 nM (pure) or 2.5 nM (library) Alexa647-CAP; temperature not stated. Particulars: protein: recombinant; tags: His6; Alexa647 maleimide (40% labelled); chain copies: 2; label: Cy3B at top position 13; 5' biotin on bottom strand; blunt.
Regarding B5, the equilibrium dissociation constant (Kd) worked out at 9.1 ± 0.6 nM. Same read-out and setting: then B6, with 20.2 ± 1.3 nM.
